# Results published in the supplement of paper PMC10724198.
# ± gives the standard deviation of the averaged measurements.
# Assays:
# Saccharomyces cerevisiae [1] = assay: protein stability index of tFT-peptide fusion (C-terminal peptide) (PSI (0-1 scale)); higher = more stable (slower turnover)
# Procedure: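 MPS profiling in S. cerevisiae of the tFT-X12 degron library: putative degron peptides plus stable controls, 12 aa, fused to the C-terminus of a sfGFP-mCherry timer. Cells are FACS-sorted into 8 mCherry/sfGFP bins and deep-sequenced. PSI runs from 0 (unstable) to 1 (stable). Backgrounds are wild type, das1Δ and doa10Δ at 30 °C, and wild type, das1Δ, cdc34-1 and cdc53-1 at 37 °C; 2-3 technical replicates each.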
# Saccharomyces cerevisiae [2] = assay: as above; conditions: genetic background: wild type; temperature: 30 C
# [3] = genetic background: cdc34-1, temperature: 37 C
# [4] = genetic background: cdc53-1, temperature: 37 C
# [5] = genetic background: das1 deletion, temperature: 30 C
# [6] = genetic background: das1 deletion, temperature: 37 C
# [7] = genetic background: doa10 deletion, temperature: 30 C
# [8] = genetic background: wild type, temperature: 30 C
# [9] = genetic background: wild type, temperature: 37 C
# 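Note: PSI is a weighted mean of sequencing reads over stability bins, variants kept only with over 10 reads, mCherry proximal and sfGFP distal, peptide attached via GGGS linker.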
Sequence,protein stability index (Saccharomyces cerevisiae [1]; [3]),protein stability index (Saccharomyces cerevisiae [1]; [4]),protein stability index (Saccharomyces cerevisiae [1]; [5]),protein stability index (Saccharomyces cerevisiae [1]; [6]),protein stability index (Saccharomyces cerevisiae [1]; [7]),protein stability index (Saccharomyces cerevisiae [1]; [8]),protein stability index (Saccharomyces cerevisiae [1]; [9]),protein stability index (Saccharomyces cerevisiae [2])
ILVYFQAHAIKI,0.1592 ± 0.00018,0.189 ± 0.015,0.0937 ± 0.022,0.199 ± 0.0036,0.0645 ± 0.012,0.0874 ± 0.027,0.202 ± 0.01,0.129 ± 0.0092
ISARPFLYSFRP,0.683 ± 0.01,0.7515 ± 0.0074,0.643 ± 0.034,0.7373 ± 0.0025,0.644 ± 0.027,0.644 ± 0.041,0.71009 ± 0.00017,0.0266 ± 0.038
ISFSLALSVSFS,0.5219 ± 0.0035,0.532 ± 0.014,0.502 ± 0.015,0.478 ± 0.029,0.567 ± 0.05,0.528 ± 0.011,0.469 ± 0.013,0.49 ± 0.0052
ISLSCRSFFCLS,0.61 ± 0.033,0.68 ± 0.011,0.574 ± 0.018,0.6691 ± 0.0065,0.446 ± 0.015,0.462 ± 0.019,0.5854 ± 0.0049,0.507 ± 0.027
ISLVLVVIEVQR,0.0774 ± 0.045,0.285 ± 0.042,0.166 ± 0.042,0.316 ± 0.017,0.135 ± 0.0075,0.143 ± 0.024,0.249 ± 0.03,0.209 ± 0.027
ISVFLFAFFFIP,0.447 ± 0.0098,0.553 ± 0.024,0.395 ± 0.03,0.531 ± 0.013,0.275 ± 0.016,0.306 ± 0.012,0.425 ± 0.01,0.356 ± 0.031
ISVQKRRAIEII,0.586 ± 0.008,0.6379 ± 0.0021,0.496 ± 0.03,0.626 ± 0.0078,0.266 ± 0.008,0.305 ± 0.018,0.492 ± 0.03,0.451 ± 0.013
IVCFCFFLMFSL,0.319 ± 0.063,0.34 ± 0.011,0.321 ± 0.021,0.417 ± 0.014,0.4222 ± 0.0033,0.317 ± 0.017,0.3766 ± 0.0011,0.378 ± 0.0077
IVVLCHVFLDLG,0.048 ± 0.01,0.128 ± 0.033,0.125 ± 0.048,0.222 ± 0.019,0.074 ± 0.026,0.0933 ± 0.021,0.2008 ± 0.00035,0.126 ± 0.03
IWCQVGAFLVVF,0.218 ± 0.0075,0.257 ± 0.0071,0.209 ± 0.024,0.352 ± 0.0047,0.18 ± 0.01,0.198 ± 0.02,0.337 ± 0.0084,0.307 ± 0.027
IYVLLDVNYHLP,0.509 ± 0.024,0.527 ± 0.0074,0.379 ± 0.024,0.543 ± 0.014,0.3542 ± 0.0026,0.361 ± 0.026,0.5681 ± 0.0038,0.468 ± 0.042
IYVSVMLLRYRF,0.41 ± 0.042,0.428 ± 0.018,0.342 ± 0.035,0.493 ± 0.0097,0.3455 ± 0.00077,0.331 ± 0.042,0.481 ± 0.03,0.465 ± 0.043
KCKIWFREVSMN,0.658 ± 0.018,0.7475 ± 0.007,0.647 ± 0.015,0.729 ± 0.06,0.1748 ± 0.0015,0.216 ± 0.019,0.414 ± 0.027,0.32 ± 0.066
KGSFDLPTFSLF,0.726 ± 0.026,0.776 ± 0.018,0.644 ± 0.026,0.769 ± 0.011,0.613 ± 0.015,0.64 ± 0.031,0.7445 ± 0.0073,0.504 ± 0.095
KICAVRVIMDWC,0.459 ± 0.059,0.542 ± 0.012,0.383 ± 0.044,0.566 ± 0.017,0.351 ± 0.0053,0.379 ± 0.018,0.564 ± 0.014,0.4769 ± 0.0044
KIKVFHEMVLMC,0.37 ± 0.059,0.587 ± 0.0097,0.446 ± 0.031,0.628 ± 0.017,0.114 ± 0.0016,0.139 ± 0.013,0.135 ± 0.043,0.18 ± 0.0043
KKNKIYKERKNI,0.702 ± 0.17,,0.6248 ± 0.0028,0.7245 ± 0.0029,0.203 ± 0.02,0.289 ± 0.13,0.462 ± 0.064,0.434 ± 0.046
KKNTQKKIKLSC,0.629 ± 0.0068,0.733 ± 0.023,0.627 ± 0.035,0.728 ± 0.045,0.15 ± 0.032,0.171 ± 0.011,0.281 ± 0.021,0.358 ± 0.011
KKRYSEIFKKNG,0.694 ± 0.057,0.728 ± 0.025,0.637 ± 0.016,0.769 ± 0.037,0.211 ± 0.033,0.254 ± 0.023,0.56 ± 0.039,0.408 ± 0.05
KLLLTCTFLVFP,0.448 ± 0.022,0.545 ± 0.024,0.37 ± 0.032,0.555 ± 0.011,0.3361 ± 0.003,0.369 ± 0.02,0.523 ± 0.018,0.435 ± 0.0062
KNKRQKNTIRKQ,0.669 ± 0.017,0.682 ± 0.056,0.654 ± 0.034,0.757 ± 0.089,0.2745 ± 0.00035,0.346 ± 0.025,0.573 ± 0.0086,0.463 ± 0.016
KQNKKHKKLKSN,0.543 ± 0.051,0.718 ± 0.051,0.66 ± 0.026,0.694 ± 0.021,0.111 ± 0.0086,0.0929 ± 0.018,0.182 ± 0.036,0.182 ± 0.091
KRLRDFLVIMCS,0.198 ± 0.024,0.2289 ± 0.0013,0.24 ± 0.03,0.358 ± 0.0079,0.112 ± 0.0067,0.118 ± 0.019,0.098 ± 0.02,0.196 ± 0.014
KTLCFLCRTRNS,0.671 ± 0.025,0.73 ± 0.011,0.668 ± 0.027,0.76 ± 0.013,0.387 ± 0.014,0.433 ± 0.023,0.658 ± 0.017,0.52 ± 0.033
KVRVRTTCWRKL,0.617 ± 0.039,0.686 ± 0.038,0.625 ± 0.015,0.7074 ± 0.0013,0.134 ± 0.0059,0.155 ± 0.014,0.347 ± 0.0065,0.255 ± 0.019
KYHLAAQLLVLL,0.602 ± 0.022,0.649 ± 0.015,0.531 ± 0.022,0.6431 ± 0.0046,0.401 ± 0.011,0.408 ± 0.0063,0.556 ± 0.0067,0.459 ± 0.037
LAFAGRCGLYVC,0.57 ± 0.064,0.679 ± 0.016,0.583 ± 0.026,0.693 ± 0.0075,0.289 ± 0.0035,0.291 ± 0.021,0.452 ± 0.0079,0.362 ± 0.053
LAGLFICTLISC,0.159 ± 0.0021,0.176 ± 0.0055,0.203 ± 0.023,0.2775 ± 0.0013,0.185 ± 0.012,0.191 ± 0.029,0.2449 ± 0.00042,0.254 ± 0.071
LASCRIVVIYSI,0.521 ± 0.029,0.52 ± 0.15,0.349 ± 0.036,0.5746 ± 0.0025,0.163 ± 0.0081,0.202 ± 0.022,0.364 ± 0.029,0.33 ± 0.068
LCFEQRYIGVLV,0.305 ± 0.045,0.38376 ± 5e-05,0.279 ± 0.035,0.4433 ± 0.0021,0.227 ± 0.008,0.251 ± 0.03,0.393 ± 0.018,0.372 ± 0.0085
